Consider three molecules from PMC7473305 (Frontiers in Immunology, 2020).

Test [1] has as its target T1, human IL-17A (generated at UCB) (Homo sapiens, UniProt Q16552). Briefly: cell-based or functional assay.
In test [2] the target is human IL-17A/F heterodimer (Homo sapiens, UniProt Q16552;Q96PD4). Briefly: cell-based or functional assay.
In test [3] the target is T2, human IL-17F (R&D Systems) (Homo sapiens, UniProt Q96PD4). Briefly: cell-based or functional assay.
In test [4] the target is T3, cynomolgus macaque IL-17F (Macaca fascicularis, UniProt G7P4V0).
T3 construct: interleukin-17F, cynomolgus macaque; source: generated at UCB
As to the kind of experiment: SPR; Biacore T200, CM5 chip; IgG1 captured by F(ab')2 fragment-specific or Fcγ-specific goat anti-human IgG F(ab')2; cytokine titrated over it (10 nM IL-17F or 5 nM IL-17A and IL-17A/F downwards); HBS-EP pH 7.4, 25°C. The settings on record: both partners purified. On the technique in general: SPR reads the build-up and loss of mass on a sensor chip optically.

Test [5] concerns the target T4, cynomolgus macaque IL-17A (Macaca fascicularis, UniProt A0A2K5TTB0).
T4 construct: interleukin-17A, cynomolgus macaque; source: generated at UCB
Described as above. The settings on record: both partners purified.

Test [6] concerns the target T1, human IL-17A (generated at UCB). As to the kind of experiment: SPR; Biacore T200, CM5 chip; Fab captured on immobilised anti-human F(ab')2; cytokine titrated over it; HBS-EP pH 7.4, 25°C. The settings on record: both partners purified.
The target in test [7] is T2, human IL-17F (R&D Systems). The description is as above. The settings on record: both partners purified.

Numbering of substitutions follows the chain as printed.

T1 sequence (Q16552 24-155): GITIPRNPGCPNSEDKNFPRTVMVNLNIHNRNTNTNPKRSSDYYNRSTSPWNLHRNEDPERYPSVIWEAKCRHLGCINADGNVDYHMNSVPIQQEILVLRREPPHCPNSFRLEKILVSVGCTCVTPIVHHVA
T2 sequence (Q96PD4 31-163): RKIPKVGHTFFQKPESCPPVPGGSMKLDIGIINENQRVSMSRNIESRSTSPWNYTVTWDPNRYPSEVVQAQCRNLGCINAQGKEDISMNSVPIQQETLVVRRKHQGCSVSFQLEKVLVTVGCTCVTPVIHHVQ
human IL-17A/F heterodimer, sequence (Q16552 24-155, chain 1 of 2): as the sequence (Q16552 24-155) above
human IL-17A/F heterodimer, sequence (Q96PD4 31-163, chain 2 of 2): as the sequence (Q96PD4 31-163) above

B1: 496.g3 IgG1 (bimekizumab) (antibody, V domains shown)
VH: EVQLVESGGGLVQPGGSLRLSCAASGFTFSDYNMAWVRQAPGKGLEWVATITYEGRNTYYRDSVKGRFTISRDNAKNSLYLQMNSLRAEDTAVYYCASPPQYYEGSIYRLWFAHWGQGTLVTVSS
VL: AIQLTQSPSSLSASVGDRVTITCRADESVRTLMHWYQQKPGKAPKLLIYLVSNSEIGVPDRFSGSGSGTDFRLTISSLQPEDFATYYCQQTWSDPWTFGQGTKVEIK
As to B1, the “IC50 of neutralization of IL-17A (1 ng/mL, with TNF 1 ng/mL): IL-6 production by NHDFs” value in test [1] was determined as 0.0004 µg/mL. The “IC50 of neutralization of IL-17A/F (30 ng/mL, with TNF 1 ng/mL): IL-6 production by NHDFs” value in test [2] was 0.0489 µg/mL. Further, in test [3], the “IC50 of neutralization of IL-17F (30 ng/mL, with TNF 1 ng/mL): IL-6 production by NHDFs” value turned out to be 0.0321 µg/mL. The dissociation constant (Kd) (as a rule, the concentration at which binding is half-saturated) in test [4] is 0.345 nM; in test [5], 0.0123 nM.

B2: 496.g1 Fab (Fab, V domains shown)
VH: B1 VH
VL: B1 VL with R30T, S54R, I56S, D60S, R72T
In the case of B2, the dissociation constant (Kd) in test [6] is 0.0292 nM; in test [7] it was 1.51 nM.

B3: 496.g3 Fab (Fab, V domains shown)
VH: B1 VH
VL: B1 VL
B3 had a dissociation constant (Kd) in test [6] of 0.0072 nM. That is a picomolar value.
